Measurements reported in patent publication US20220177525A1.
pKd: −log10 of the molar value.

Biological target: N-peptide (RABV N protein, residues 363-414, [change]) (RABV)

NiP-CTD (C-terminal domain of the P protein of rabies virus strain Nishigahara, residues 186-297, Cy (from UniProt Q9IPJ8 186-296)
pKd: 4.06
